Measured values reported in US20210094988A1 (UNIVERSITY OF FLORIDA RESEARCH FOUNDATION, published 2021).

Target: the molecule itself
Test: X-ray crystallography, homodimer in the crystal

B1: recombinant SP-free Coprinus comatus Y3 protein (monomer) (other)
chain: QDPLSCYDNFGNRDVAACARFIDDFCDTLTPNIYRPRDNGQRCYVVNGHKCDFTVFNTNNGGSPIRASTPNCKTVLRAAANRCPTGGRGKINPSAPFLFAIDPNDGDCSTDF
modifications: pyroglutamic acid (PCA) formed from Gln19; four intramolecular disulfide bridges Cys24-Cys101, Cys36-Cys69, Cys61-Cys126, Cys44-Cys90
notes: also called recombinant Y3; mature recombinant Y3 protein
binding result: binds
